The RNAGym collection of RNA variant scans (doi:10.7554/elife.80360)

B1: Hairpin Ribozyme (parent)
chain: GUCCUCUUUCACGUGCGCGUGAAAGAGAGAAGUGAACCAGAGAAACACACGUUGUGGUAUAUUACCUGGUA

Variants of: B1
Assay: self-cleavage, relative activity (ratio to wild type); higher = more cleavage; co-transcriptional

First: G27U G56C
Second: G27U G68A
The self-cleavage of the first is higher: 0.149 for the first, 0.128 for the second.

First: G27U U33A
Second: G27U U33C
The self-cleavage of the first is higher: 0.121 for the first, 0.109 for the second.

Going from G27U U53G to G27U U55C, the self-cleavage falls from 0.23 to 0.113.

Going from G27U U55G to G27U U58C, the self-cleavage rises from 0.224 to 0.318.

Compared with G27U U60G, G27U U62C is higher in self-cleavage: 0.0793 for the first, 0.191 for the second.

First: G27U U67A
Second: G27U U70C
The self-cleavage of the first is higher: 0.177 for the first, 0.105 for the second.

Compared with A28C A31C, A28C A35C is higher in self-cleavage: 0 for the first, 0.864 for the second.

First: A28C A35G
Second: A28C A35U
The self-cleavage of the first is higher: 0.445 for the first, 0.295 for the second.

First: A28C A36C
Second: A28C A36G
The self-cleavage of the first is lower: 0.32 for the first, 0.552 for the second.

Going from A28C A36U to A28C A41C, the self-cleavage rises from 0.302 to 0.625.

Compared with A28C A43G, A28C A44C is higher in self-cleavage: 0.129 for the first, 0.134 for the second.

Compared with A28C A44G, A28C A45C is lower in self-cleavage: 0.0991 for the first, 0.0427 for the second.

Going from A28C A47U to A28C A49C, the self-cleavage rises from 0.0267 to 0.119.

First: A28C A61C
Second: A28C A71C
The self-cleavage of the first is lower: 0.122 for the first, 1.05 for the second.

Going from A28C A71G to A28C A71U, the self-cleavage falls from 0.457 to 0.291.

Compared with A28C C37A, A28C C38A is higher in self-cleavage: 0.166 for the first, 0.205 for the second.

Compared with A28C C48U, A28C C50A is higher in self-cleavage: 0.124 for the first, 0.151 for the second.

Going from A28C C50G to A28C C65G, the self-cleavage rises from 0.107 to 0.229.

Compared with A28C G32A, A28C G40C is lower in self-cleavage: 0.172 for the first, 0.0679 for the second.

Going from A28C G40U to A28C G54U, the self-cleavage rises from 0.101 to 0.262.

Compared with A28C G69A, A28C G69C is higher in self-cleavage: 0.168 for the first, 0.262 for the second.

First: A28C U33C
Second: A28C U52G
The self-cleavage of the first is lower: 0.107 for the first, 0.301 for the second.

Compared with A28C U53C, A28C U58A is lower in self-cleavage: 0.598 for the first, 0.401 for the second.

Compared with A28C U58G, A28C U62A is higher in self-cleavage: 0.151 for the first, 0.159 for the second.

First: A28C U62C
Second: A28C U62G
The self-cleavage of the first is higher: 0.203 for the first, 0.18 for the second.

Compared with A28C U63A, A28C U67C is higher in self-cleavage: 0.0573 for the first, 0.146 for the second.

Compared with A28C U70A, A28G A35U is higher in self-cleavage: 0.468 for the first, 1.13 for the second.

Compared with A28G A36U, A28G A39G is lower in self-cleavage: 0.7 for the first, 0.357 for the second.

First: A28G A41C
Second: A28G A41G
The self-cleavage of the first is higher: 0.961 for the first, 0.908 for the second.

Going from A28G A44U to A28G A45U, the self-cleavage rises from 0.142 to 0.201.

Compared with A28G A47C, A28G A47U is lower in self-cleavage: 0.42 for the first, 0.192 for the second.

First: A28G A49C
Second: A28G A59U
The self-cleavage of the first is lower: 0.208 for the first, 0.32 for the second.

Going from A28G A61G to A28G A64G, the self-cleavage rises from 0.279 to 0.425.

Compared with A28G C37A, A28G C37G is lower in self-cleavage: 0.504 for the first, 0.36 for the second.

Going from A28G C38A to A28G C38G, the self-cleavage rises from 0.168 to 0.169.

First: A28G C38U
Second: A28G C46G
The self-cleavage of the first is higher: 0.547 for the first, 0.134 for the second.

Compared with A28G C65A, A28G C65G is lower in self-cleavage: 0.884 for the first, 0.409 for the second.

Compared with A28G G29C, A28G G32A is higher in self-cleavage: 0.12 for the first, 0.236 for the second.

First: A28G G32U
Second: A28G G34C
The self-cleavage of the first is lower: 0.0347 for the first, 0.999 for the second.

First: A28G G34U
Second: A28G G40U
The self-cleavage of the first is higher: 1.65 for the first, 0.19 for the second.

Compared with A28G G42A, A28G G51C is higher in self-cleavage: 0.21 for the first, 1.08 for the second.

Going from A28G G54A to A28G G57A, the self-cleavage falls from 0.646 to 0.19.

First: A28G G57U
Second: A28G G68A
The self-cleavage of the first is higher: 0.36 for the first, 0.349 for the second.

First: A28G G69C
Second: A28G U33A
The self-cleavage of the first is higher: 0.46 for the first, 0.157 for the second.

Going from A28G U53A to A28G U53C, the self-cleavage rises from 1.01 to 1.06.

Compared with A28G U53G, A28G U58A is lower in self-cleavage: 1.13 for the first, 0.653 for the second.

Compared with A28G U60C, A28G U60G is higher in self-cleavage: 0.795 for the first, 0.97 for the second.

Going from A28G U67A to A28G U70A, the self-cleavage rises from 0.31 to 1.05.

Going from A28U A30U to A28U A31G, the self-cleavage rises from 0.136 to 0.325.

Compared with A28U A35C, A28U A35G is lower in self-cleavage: 0.704 for the first, 0.599 for the second.

Compared with A28U A36C, A28U A39G is lower in self-cleavage: 0.286 for the first, 0.143 for the second.

First: A28U A39U
Second: A28U A41C
The self-cleavage of the first is lower: 0.222 for the first, 1.13 for the second.

Going from A28U A43G to A28U A49C, the self-cleavage rises from 0.0987 to 0.18.

Going from A28U A59G to A28U A61C, the self-cleavage falls from 0.243 to 0.18.

Going from A28U A61U to A28U A64C, the self-cleavage rises from 0.12 to 0.278.

First: A28U A64G
Second: A28U A64U
The self-cleavage of the first is higher: 0.167 for the first, 0.0714 for the second.

First: A28U A71C
Second: A28U A71U
The self-cleavage of the first is higher: 1.1 for the first, 0.371 for the second.

First: A28U C37G
Second: A28U C37U
The self-cleavage of the first is lower: 0.193 for the first, 0.376 for the second.

First: A28U C38U
Second: A28U C46G
The self-cleavage of the first is higher: 0.343 for the first, 0.109 for the second.

Going from A28U C46U to A28U C48A, the self-cleavage rises from 0.046 to 0.131.

Going from A28U C48U to A28U C50A, the self-cleavage falls from 0.251 to 0.213.

First: A28U C50G
Second: A28U C65A
The self-cleavage of the first is lower: 0.173 for the first, 0.497 for the second.

First: A28U G29C
Second: A28U G29U
The self-cleavage of the first is lower: 0.0715 for the first, 0.0995 for the second.

First: A28U G32A
Second: A28U G32C
The self-cleavage of the first is higher: 0.234 for the first, 0.175 for the second.

Compared with A28U G34A, A28U G40A is lower in self-cleavage: 0.873 for the first, 0.175 for the second.

Going from A28U G42C to A28U G42U, the self-cleavage rises from 0.0977 to 0.218.

First: A28U G57U
Second: A28U U33G
The self-cleavage of the first is higher: 0.235 for the first, 0.104 for the second.

Compared with A28U U52A, A28U U52C is higher in self-cleavage: 0.423 for the first, 0.768 for the second.

First: A28U U53G
Second: A28U U58G
The self-cleavage of the first is higher: 0.432 for the first, 0.416 for the second.

Going from A28U U60C to A28U U62A, the self-cleavage falls from 0.871 to 0.0878.

Going from A28U U62C to A28U U62G, the self-cleavage falls from 0.272 to 0.0982.

Compared with A28U U63G, A28U U70C is higher in self-cleavage: 0.105 for the first, 0.394 for the second.

Compared with G29A A30C, G29A A30U is lower in self-cleavage: 0.115 for the first, 0.0939 for the second.

Going from G29A A31C to G29A A35C, the self-cleavage rises from 0.129 to 0.187.

Compared with G29A A35G, G29A A36G is lower in self-cleavage: 0.147 for the first, 0.135 for the second.

Compared with G29A A39C, G29A A39G is higher in self-cleavage: 0.108 for the first, 0.128 for the second.

Compared with G29A A41U, G29A A43C is higher in self-cleavage: 0.156 for the first, 0.215 for the second.

Compared with G29A A44U, G29A A45G is lower in self-cleavage: 0.226 for the first, 0.105 for the second.

Compared with G29A A49U, G29A A59U is higher in self-cleavage: 0.122 for the first, 0.162 for the second.

Compared with G29A A64G, G29A C37A is higher in self-cleavage: 0.0994 for the first, 0.107 for the second.

Going from G29A C37G to G29A C37U, the self-cleavage rises from 0.103 to 0.134.

Compared with G29A C38A, G29A C48G is higher in self-cleavage: 0.108 for the first, 0.124 for the second.

Compared with G29A C50U, G29A C66A is lower in self-cleavage: 0.178 for the first, 0.139 for the second.

G29A G32C showed a self-cleavage of 0.106.
